In article doi:10.1101/2025.07.23.666473:

Biological target: NaV1.5 (mouse (endogenous in heart)) (UniProt Q9JJV9)
Test: co-IP

Chain of UniProt Q9JJV9 (Q9JJV9 whole entry): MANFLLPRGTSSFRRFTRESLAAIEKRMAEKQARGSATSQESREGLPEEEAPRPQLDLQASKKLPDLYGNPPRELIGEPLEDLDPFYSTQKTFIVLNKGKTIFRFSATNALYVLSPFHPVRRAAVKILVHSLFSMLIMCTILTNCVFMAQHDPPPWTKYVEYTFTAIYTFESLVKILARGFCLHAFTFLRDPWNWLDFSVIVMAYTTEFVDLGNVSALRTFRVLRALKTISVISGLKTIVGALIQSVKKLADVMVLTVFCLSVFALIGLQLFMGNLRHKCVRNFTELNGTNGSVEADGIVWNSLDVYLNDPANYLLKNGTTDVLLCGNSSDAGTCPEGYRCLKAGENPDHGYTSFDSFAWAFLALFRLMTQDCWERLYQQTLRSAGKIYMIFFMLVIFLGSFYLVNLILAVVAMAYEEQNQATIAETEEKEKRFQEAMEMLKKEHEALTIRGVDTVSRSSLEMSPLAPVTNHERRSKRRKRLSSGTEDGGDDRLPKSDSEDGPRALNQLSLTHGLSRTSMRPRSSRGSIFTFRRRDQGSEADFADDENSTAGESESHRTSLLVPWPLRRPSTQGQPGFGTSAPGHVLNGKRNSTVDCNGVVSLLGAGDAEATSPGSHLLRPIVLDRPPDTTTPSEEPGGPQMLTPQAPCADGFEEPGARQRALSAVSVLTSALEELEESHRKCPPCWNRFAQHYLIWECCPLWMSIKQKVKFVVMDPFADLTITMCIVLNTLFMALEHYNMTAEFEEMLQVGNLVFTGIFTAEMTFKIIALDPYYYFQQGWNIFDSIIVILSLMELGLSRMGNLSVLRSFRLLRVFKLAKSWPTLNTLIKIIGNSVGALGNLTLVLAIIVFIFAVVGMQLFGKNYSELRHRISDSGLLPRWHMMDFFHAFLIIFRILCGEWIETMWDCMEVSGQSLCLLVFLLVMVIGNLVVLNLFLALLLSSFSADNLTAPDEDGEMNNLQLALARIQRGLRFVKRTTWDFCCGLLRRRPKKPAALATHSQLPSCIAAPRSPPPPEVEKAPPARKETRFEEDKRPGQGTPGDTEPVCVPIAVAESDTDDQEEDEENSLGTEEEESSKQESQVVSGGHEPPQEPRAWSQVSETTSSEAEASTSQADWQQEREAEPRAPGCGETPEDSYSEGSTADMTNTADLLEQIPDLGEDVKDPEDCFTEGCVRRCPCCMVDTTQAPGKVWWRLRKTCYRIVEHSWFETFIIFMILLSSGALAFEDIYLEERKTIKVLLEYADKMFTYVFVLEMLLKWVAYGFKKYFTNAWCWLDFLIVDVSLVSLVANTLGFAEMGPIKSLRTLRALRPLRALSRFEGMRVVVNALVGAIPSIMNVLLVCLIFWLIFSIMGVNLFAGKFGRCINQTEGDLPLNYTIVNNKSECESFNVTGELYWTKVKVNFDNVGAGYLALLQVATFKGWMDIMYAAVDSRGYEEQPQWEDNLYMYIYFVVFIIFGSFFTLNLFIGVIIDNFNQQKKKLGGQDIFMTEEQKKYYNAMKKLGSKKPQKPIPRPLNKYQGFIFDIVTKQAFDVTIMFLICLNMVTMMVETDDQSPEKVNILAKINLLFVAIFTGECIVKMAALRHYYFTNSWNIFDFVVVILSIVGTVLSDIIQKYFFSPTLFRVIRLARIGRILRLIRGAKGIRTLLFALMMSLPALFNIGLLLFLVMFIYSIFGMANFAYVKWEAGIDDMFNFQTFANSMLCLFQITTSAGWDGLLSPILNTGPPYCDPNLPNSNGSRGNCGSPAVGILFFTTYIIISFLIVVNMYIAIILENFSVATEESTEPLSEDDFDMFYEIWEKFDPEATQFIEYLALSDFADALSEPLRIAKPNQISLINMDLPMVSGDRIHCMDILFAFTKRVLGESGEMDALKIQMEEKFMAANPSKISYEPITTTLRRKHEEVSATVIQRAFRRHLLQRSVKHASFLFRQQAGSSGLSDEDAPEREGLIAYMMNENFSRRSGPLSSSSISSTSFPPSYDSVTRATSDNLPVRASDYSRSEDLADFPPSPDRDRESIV

FGF13 (from UniProt P70377 1-245) (natural protein)
percent of total FGF13 depleted with NaV1.5 (in complex): 35%
